# B1: Endo-1,4-beta-xylanase A, P26514 (parent)
# chain: MGSYALPRSGVRRSIRVLLLALVVGVLGTATALIAPPGAHAAESTLGAAAAQSGRYFGTAIASGRLSDSTYTSIAGREFNMVTAENEMKIDATEPQRGQFNFSSADRVYNWAVQNGKQVRGHTLAWHSQQPGWMQSLSGSALRQAMIDHINGVMAHYKGKIVQWDVVNEAFADGSSGARRDSNLQRSGNDWIEVAFRTARAADPSAKLCYNDYNVENWTWAKTQAMYNMVRDFKQRGVPIDCVGFQSHFNSGSPYNSNFRTTLQNFAALGVDVAITELDIQGAPASTYANVTNDCLAVSRCLGITVWGVRDSDSWRSEQTPLLFNNDGSKKAAYTAVLDALNGGDSSEPPADGGQIKGVGSGRCLDVPDASTSDGTQLQLWDCHSGTNQQWAATDAGELRVYGDKCLDAAGTSNGSKVQIYSCWGGDNQKWRLNSDGSVVGVQSGLCLDAVGNGTANGTLIQLYTCSNGSNQRWTRT
# Variants of: B1
# Details: Streptomyces lividans; pH 6; Thermal; CD; sodium phosphate 10 mM; structure 1XAS; whole UniProt chain shown
Variant,Tm,"change of melting temperature, mutant - wild type (higher = more stable)"
W307A,63.3 °C,-4.7 °C
W307H,60.7 °C,-7.3 °C
W307F,64.7 °C,-3.3 °C
W315A,72.1 °C,4.1 °C
W315H,68.2 °C,0.2 °C
W315F,68.8 °C,0.8 °C
W126A,70 °C,2 °C
W126F,64 °C,-4 °C
W126H,67 °C,-1 °C
Y213F,67.1 °C,-0.9 °C
Y213S,69.6 °C,1.6 °C
Y213A,63 °C,-5 °C
